# In the supplement of paper PMC10724198:
# ± gives the standard deviation of the averaged measurements.
# What was measured:
# Saccharomyces cerevisiae [1] = assay: protein stability index of tFT-peptide fusion (C-terminal peptide) (PSI (0-1 scale)); higher = more stable (slower turnover)
# Procedure: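 MPS profiling in S. cerevisiae of the tFT-X12 degron library: putative degron peptides plus stable controls, 12 aa, fused to the C-terminus of a sfGFP-mCherry timer. Cells are FACS-sorted into 8 mCherry/sfGFP bins and deep-sequenced. PSI runs from 0 (unstable) to 1 (stable). Backgrounds are wild type, das1Δ and doa10Δ at 30 °C, and wild type, das1Δ, cdc34-1 and cdc53-1 at 37 °C; 2-3 technical replicates each.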
# Saccharomyces cerevisiae [2] = assay: as above; details: genetic background: wild type; temperature: 30 C
# [3] = genetic background: cdc34-1, temperature: 37 C
# [4] = genetic background: cdc53-1, temperature: 37 C
# [5] = genetic background: das1 deletion, temperature: 30 C
# [6] = genetic background: das1 deletion, temperature: 37 C
# [7] = genetic background: doa10 deletion, temperature: 30 C
# [8] = genetic background: wild type, temperature: 30 C
# [9] = genetic background: wild type, temperature: 37 C
# 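Note: PSI is a weighted mean of sequencing reads over stability bins, variants kept only with over 10 reads, mCherry proximal and sfGFP distal, peptide attached via GGGS linker.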
Sequence,protein stability index (Saccharomyces cerevisiae [1]; [3]),protein stability index (Saccharomyces cerevisiae [1]; [4]),protein stability index (Saccharomyces cerevisiae [1]; [5]),protein stability index (Saccharomyces cerevisiae [1]; [6]),protein stability index (Saccharomyces cerevisiae [1]; [7]),protein stability index (Saccharomyces cerevisiae [1]; [8]),protein stability index (Saccharomyces cerevisiae [1]; [9]),protein stability index (Saccharomyces cerevisiae [2])
PLSSHIPVHEAR,0.659 ± 0.052,0.744 ± 0.035,0.699 ± 0.017,0.706 ± 0.011,0.674 ± 0.012,0.645 ± 0.025,0.6878 ± 0.0027,0.718 ± 0.025
PPLTRVPLSISA,0.434 ± 0.0084,0.465 ± 0.016,0.292 ± 0.04,0.492 ± 0.012,0.267 ± 0.0075,0.305 ± 0.034,0.46 ± 0.005,0.413 ± 0.052
PPPPLATTSAPL,0.687 ± 0.046,0.74266 ± 0.0006,0.661 ± 0.0092,0.7118 ± 0.0031,0.668 ± 0.029,0.665 ± 0.015,0.6919 ± 0.0013,0.719 ± 0.04
PPSLFLLLKVFF,0.321 ± 0.0034,0.362 ± 0.012,0.279 ± 0.037,0.458 ± 0.005,0.268 ± 0.0069,0.223 ± 0.023,0.357 ± 0.0065,0.3254 ± 0.0024
PPSPPPLSASVP,0.661 ± 0.04,0.698 ± 0.025,0.667 ± 0.053,0.698 ± 0.02,0.677 ± 0.024,0.669 ± 0.015,0.7 ± 0.0078,0.578 ± 0.14
PRHLTPPPAPSA,0.704 ± 0.059,0.721 ± 0.024,0.675 ± 0.022,0.708 ± 0.013,0.66 ± 0.038,0.659 ± 0.022,0.6742 ± 0.0042,0.642 ± 0.24
PRHVLWLRRLLF,0.68 ± 0.052,0.7289 ± 0.0067,0.622 ± 0.02,0.782 ± 0.029,0.2 ± 0.016,0.235 ± 0.024,0.5371 ± 0.0031,0.334 ± 0.0067
PRLRPQTVAFLS,0.68 ± 0.038,0.732 ± 0.013,0.651 ± 0.011,0.721 ± 0.013,0.28 ± 0.02,0.313 ± 0.016,0.5179 ± 0.001,0.2648 ± 0.0012
PVGLMKRFRLFI,0.698 ± 0.088,0.727 ± 0.02,0.615 ± 0.031,0.716 ± 0.023,0.332 ± 0.012,0.364 ± 0.031,0.626 ± 0.018,0.455 ± 0.058
PVPPSLLHRPPF,0.679 ± 0.056,0.736 ± 0.045,0.682 ± 0.014,0.722 ± 0.018,0.677 ± 0.011,0.673 ± 0.021,0.727 ± 0.027,0.33 ± 0.014
PWAHIRTVQTYV,0.673 ± 0.0069,0.716 ± 0.013,0.595 ± 0.011,0.7626 ± 0.0066,0.286 ± 0.0081,0.314 ± 0.033,0.461 ± 0.027,0.437 ± 0.0069
PWFSWLLYSFLF,0.546 ± 0.024,0.529 ± 0.031,0.526 ± 0.013,0.651 ± 0.029,0.535 ± 0.016,0.458 ± 0.026,0.551 ± 0.011,0.501 ± 0.0028
PYSLYASSSSPL,0.696 ± 0.045,0.7492 ± 0.0029,0.68 ± 0.023,0.748 ± 0.019,0.6716 ± 0.0016,0.676 ± 0.017,0.716 ± 0.015,0.727 ± 0.024
QCSVRLKEIQFS,0.664 ± 0.032,0.726 ± 0.011,0.673 ± 0.03,0.72 ± 0.028,0.209 ± 0.023,0.276 ± 0.0056,0.481 ± 0.045,0.346 ± 0.1
QERKILGRIKQA,0.51 ± 0.078,0.6853 ± 0.00099,0.651 ± 0.05,0.7081 ± 0.0052,0.0853 ± 0.0029,0.0987 ± 0.035,0.161 ± 0.026,0.265 ± 0.12
QITIYPIPLARF,0.951 ± 0.015,0.937 ± 0.0099,0.807 ± 0.015,0.88 ± 0.0098,0.808 ± 0.027,0.867 ± 0.015,0.8924 ± 0.0076,0.79 ± 0.065
QPSSFDMLGLLL,0.6791 ± 0.0055,0.738 ± 0.019,0.654 ± 0.0092,0.752 ± 0.023,0.671 ± 0.053,0.663 ± 0.02,0.709 ± 0.0089,0.742 ± 0.049
RFKEKVSIIHKQ,0.6446 ± 0.0022,0.665 ± 0.061,0.693 ± 0.04,0.74 ± 0.017,0.11 ± 0.0081,0.106 ± 0.046,0.12487 ± 0.0001,0.207 ± 0.054
RGYATTALHWVS,0.668 ± 0.038,0.7695 ± 0.0075,0.6757 ± 0.002,0.7395 ± 0.0034,0.362 ± 0.0075,0.4 ± 0.022,0.596 ± 0.015,0.486 ± 0.019
RHRGHVRLALLN,0.7 ± 0.079,0.845 ± 0.041,0.772 ± 0.013,0.791 ± 0.061,0.233 ± 0.025,0.26 ± 0.029,0.381 ± 0.017,0.396 ± 0.0095
RICCLFILLFCL,0.439 ± 0.043,0.464 ± 0.024,0.396 ± 0.03,0.477 ± 0.0084,0.422 ± 0.0089,0.365 ± 0.028,0.412 ± 0.019,0.423 ± 0.057
RIEGTLTARTAF,0.736 ± 0.069,0.7639 ± 0.0033,0.635 ± 0.033,0.744 ± 0.013,0.65 ± 0.01,0.66 ± 0.0097,0.709 ± 0.00092,0.579 ± 0.18
RITGCWKTYKMQ,0.6341 ± 0.00082,0.721 ± 0.0019,0.615 ± 0.0094,0.758 ± 0.055,0.14145 ± 6.9e-05,0.164 ± 0.026,0.342 ± 0.073,0.308 ± 0.055
RKNIKISKAGIG,0.283 ± 0.0034,0.394 ± 0.0056,0.343 ± 0.012,0.377 ± 0.012,0.31 ± 0.0041,0.287 ± 0.021,0.332 ± 0.0074,0.279 ± 0.1
RKRTILVIIVVK,0.181 ± 0.031,0.33 ± 0.042,0.234 ± 0.045,0.461 ± 0.05,0.186 ± 0.011,0.217 ± 0.046,0.395 ± 0.052,0.338 ± 0.061
RKVWSLCWFVHL,0.49 ± 0.071,0.617 ± 0.012,0.512 ± 0.012,0.65 ± 0.008,0.0695 ± 0.0078,0.0716 ± 0.015,0.0795 ± 0.0077,0.116 ± 0.0023
RLGRYSIIHCLA,0.295 ± 0.023,0.459 ± 0.044,0.327 ± 0.029,0.52 ± 0.021,0.0877 ± 0.015,0.102 ± 0.028,0.0944 ± 0.058,0.15 ± 0.0068
RLHCFSPILCPI,0.6063 ± 0.0042,0.576 ± 0.0073,0.434 ± 0.029,0.59601 ± 0.00033,0.402 ± 0.021,0.436 ± 0.017,0.579 ± 0.036,0.493 ± 0.012
RLIARFKILRCI,0.259 ± 0.012,0.588 ± 0.011,0.559 ± 0.012,0.635 ± 0.0085,0.0618 ± 0.0034,0.0662 ± 0.0038,0.0702 ± 0.0014,0.0979 ± 0.064
RLINCIYVLMLP,0.567 ± 0.042,0.569 ± 0.0072,0.412 ± 0.029,0.606 ± 0.0037,0.261 ± 0.015,0.274 ± 0.033,0.513 ± 0.024,0.398 ± 0.029
